Experimental data published in PMC9278863, “The two-domain elevator-type mechanism of zinc-transporting ZIP proteins” (Science Advances, 2022).

Target: the molecule itself
Assay: crystal structure; metal-free BbZIP crystallised in lipidic cubic phase (monoolein), 100 mM NaOAc-HOAc pH 4.5, LiSO4, PEG400, 20°C; two molecules in the asymmetric unit; parallel dimers seen in the crystal packing

B1: ZIP from Bordetella bronchiseptica (BbZIP), wild type (natural protein, UniProt A0A0H3LM39 1-309, looked up)
chain: MNQPSSLAADLRGAWHAQAQSHPLITLGLAASAAGVVLLLVAGIVNALTGENRVHVGYAVLGGAAGFAATALGALMALGLRAISARTQDAMLGFAAGMMLAASAFSLILPGLDAAGTIVGPGPAAAAVVALGLGLGVLLMLGLDYFTPHEHERTGHQGPEAARVNRVWLFVLTIILHNLPEGMAIGVSFATGDLRIGLPLTSAIAIQDVPEGLAVALALRAVGLPIGRAVLVAVASGLMEPLGALVGVGISSGFALAYPISMGLAAGAMIFVVSHEVIPETHRNGHETTATVGLMAGFALMMFLDTALG
notes: density seen for residues 21-145, 165-279, 285-309 (chain A) and 18-77, 84-145, 166-219, 225-307 (chain B) of the metal-free structure; also called Zrt/Irt-like protein; WT; source: E. coli C43(DE3), purified (DDM solubilisation, HisTrap IMAC, SEC)
Does B1 bind?
Result: binds
